“Also recorded” adds a separate entry of the source.
Tests used:
[1] = target: T1, alpha-enolase on the surface of C. albicans (Candida albicans, UniProt P30575); assay: Flow cytometry of C. albicans, FITC binding; assay type: cell-based, C. albicans SC 5314; details: 100 ug antibody, 10^5 cells, 2 hours at 37° C.
T1 construct: endogenous in cells; host or cells: C. albicans SC 5314 and clinical isolates CA6-17, CA7-26, CA7-3, CA10-50, CA7-30, CA10-65
Method: (§1) (A) C. albicans SC 5314 were cultured overnight and 10^5 cells were added to each tube with 2 ml YPD medium. Experiment antibodies were added to each tube (1) Anti-CaENO1 IgY (100 ug) (2) Control scFv (100 ug) (3) scFv CaS1 (100 ug) (4) PBS, and cultured 2 hours at 37° C. in an incubator. Goat anti-chicken light chain (1:1500) antibody was used as detected antibody; FITC donkey anti-goat antibody (1:1000) was used as developed antibody to detect the reaction. Propidium iodide (PI) (1 ug/ml) was used to detect cell death. (B) Quantification of flow cytometry result in the panel A (*, p<0.05;**, p<0.01). Flow cytometry is represented as mean±SD of the duplicated experiment.
(§2) Anti-CaENO1 IgY, scFv CaS1 and control scFv were contacted with C. albicans and then subjected to flow cytometry assay. Anti-CaENO1 IgY, scFv CaS1 and control scFv show 89.7+/−2.8%, 46.64+/−3.1% and 23+/−2.3% FITC fluorescence reaction (FIG. 7A), representing that the antibody can bind to alpha-enolase on the surface of C. albicans.

[2] = system: C. albicans; assay: Flow cytometry of C. albicans, propidium iodide cell death; assay type: cell-based, C. albicans SC 5314; details: 100 ug antibody, 10^5 cells, 2 hours at 37° C.
Method: as §1, §2

[3] = target: T2, mENO1 (Mus musculus, UniProt P17182); assay: Western blot on purified mouse ENO1 protein; assay type: binding
T2 construct: His; made in house; host or cells: E. coli BL21 (by 'in the same way')
T2 sequence (P17182 whole entry): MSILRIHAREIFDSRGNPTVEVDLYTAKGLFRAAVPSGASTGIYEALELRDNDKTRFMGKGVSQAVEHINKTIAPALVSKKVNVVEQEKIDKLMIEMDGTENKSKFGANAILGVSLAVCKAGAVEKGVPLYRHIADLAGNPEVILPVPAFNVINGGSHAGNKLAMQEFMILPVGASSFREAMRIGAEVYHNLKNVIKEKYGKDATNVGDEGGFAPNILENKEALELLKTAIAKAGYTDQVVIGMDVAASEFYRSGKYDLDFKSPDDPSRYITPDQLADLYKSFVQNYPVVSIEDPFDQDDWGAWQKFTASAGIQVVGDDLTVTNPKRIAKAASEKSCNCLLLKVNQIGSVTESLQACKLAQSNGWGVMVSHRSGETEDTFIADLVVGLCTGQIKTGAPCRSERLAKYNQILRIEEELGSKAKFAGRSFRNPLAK
Excerpt: Lane M contained protein markers.
The ImageQuant LAS4500 was used for ECL intensity detection.

[4] = target: T3, ENO1 protein expressed in cell lysates of C. albicans (Candida albicans, UniProt P30575); assay: Western blot on total cell lysate of C. albicans; assay type: binding
T3 construct: endogenous in cells; host or cells: C. albicans SC 5314 and clinical isolates CA6-17, CA7-26, CA7-3, CA10-50, CA7-30, CA10-65
T3 sequence (P30575 whole entry): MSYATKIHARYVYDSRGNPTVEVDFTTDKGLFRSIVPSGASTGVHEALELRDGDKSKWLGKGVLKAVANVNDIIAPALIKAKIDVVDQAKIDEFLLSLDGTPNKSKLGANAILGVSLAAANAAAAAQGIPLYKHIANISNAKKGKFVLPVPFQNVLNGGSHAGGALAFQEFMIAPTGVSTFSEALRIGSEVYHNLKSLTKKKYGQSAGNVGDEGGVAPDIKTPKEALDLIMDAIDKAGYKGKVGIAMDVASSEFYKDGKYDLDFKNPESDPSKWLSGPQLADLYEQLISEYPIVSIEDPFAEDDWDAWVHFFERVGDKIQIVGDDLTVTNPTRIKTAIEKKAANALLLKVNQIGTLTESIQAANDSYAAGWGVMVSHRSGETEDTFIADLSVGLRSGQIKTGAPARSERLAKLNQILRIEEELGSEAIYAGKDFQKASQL
Excerpt: (A) The total cell lysates of 5 Candida spp. were visualized on SDS-PAGE (left). After transferred onto the NC membranes, they were probed with purified anti-CaENO1 from 7th immunized chicken (1:3,000) (middle), or with CaS1 scFv (right) as described in material and methods. Lanes 1-6 in (A) contained the total cell lysates of C. albicans, C. krusei, C. tropicalis, C. parapsilosis and C. glabrate and purified recombinant CaENO1, respectively. […] (C) Total cell lysate from FLU^R and FLU^s and C. tropicalis (lanes 1-5 represent CT6-29, CT11-52, CT6-50, CT12-54, BCRC20520, respectively) by SDS-PAGE (left) and probed with CaS1 scFv by Western blot (right). (D) The purified ENO1 proteins of C. albicans, S. pneumonia, S. aureus, mouse and human were visualized on SDS-PAGE (left). After transferred onto the NC membranes, they were probed with purified CaS1 scFv (right) as described. Lane M contained protein markers. […]
This CaS1 scFv was evaluated for its binding activity to different species of Candida. Five common strains of Candida were obtained, total lysate of five species Candida were analyzed on SDS-PAGE (FIG. 6A left) and subsequent Western blot.

[5] = target: T4, CaENO1 (Candida albicans, UniProt P30575); assay type: binding, C. albicans; details: free form vs fixed form recombinant CaENO1
T4 construct: using full-length CaENO1 (1323 bp) as template; His (N); made in house; host or cells: E. coli BL21
T4 sequence (P30575 whole entry): as above
Method: (A) Purified CaS1 scFv was used to recognize recombinant CaENO1 protein. The CaS1 scFv were used as primary antibody with series dilution. The goat anti-chicken light chain IgG was used as secondary antibody. The HRP conjugated donkey anti-goat IgG was used to decet. (B) OD value was calculated into percentage. […] The goat anti-chicken light chain IgG was used as secondary antibody. The HRP conjugated donkey anti-goat IgG was used to detect. (D) We calculated OD value into percentage.

[6] = system: binding of C. albicans cells to human oral keratinocyte OECM-1 cells; assay: Adhesion assay of C. albicans to OECM-1 cells; assay type: cell-based; details: 50 μg and 100 μg, vs PBS control
Method: C. albicans were mixed with 1×PBS, 50 ug or 100 ug CaS1 scFv at 37° C. for 1 hr and added into OECM-1 cells in culture wells as described in the text. After being washed, cells attached to C. albicans were detected by adding HRP-conjugated anti-C. albicans antibodies.
Cell adhesion assay was performed using human oral epidermal cells (OECM-1) (XXX). C. albicans (1×10^6 cfu) were pre-incubated with CaS1 scFv antibodies ([…]) at 37° C. for 1 hr. After incubation, the mixtures were two-fold diluted and added onto 10^4 OECM-1 cells cultured in 96-well plates. The plates were further incubated at 4° C. for 2 hrs. After being washed three times with 1×PBS, the plates were fixed with 10% formaldehyde. After being washed as above, the wells were blocked with skim milk for 1 hr. Thereafter, rabbit anti-C. albicans antibodies (1:3,000, Bethyl, USA) were added and incubated for another 1 hr, followed by adding the HRP-conjugated anti-rabbit antibodies (1:3,000, Bethyl, USA). Washings as above were always carried out between steps. TMB was used for color development, which was stopped with 1 N HCl. The intensity of the color was measured at 450 nm on an ELISA plate reader.
C. albicans cells (1×10^6) were treated with 50 μg and 100 μg of scFv CaS1, respectively, and the resulting mixtures were added to human oral keratinocyte OECM-1 cells to test the binding ability of C. albicans cells to OECM-1 cells.

T1 sequence (P30575 whole entry): as above

B1: CaS1 scFv: anti-CaENO1 scFv monoclonal antibody from chicken phage library; light chain SEQ ID NO:11, heavy chain SEQ ID NO:12 (antibody, V domains shown)
VH: TVTLDESGGGLQTPRGALSLVCKASGFTFIDYGMQWVRQAPGKGLEWVAGIGSSGSSTNYGAAVKGRATISRDDGQSTVRLQLNNLRAEDTGTYYCAKSAGGYCVNGAGCNGGSIDAWGHGTEVIVSS
VL: ALTQPSSVSANLGGTVKITCSGGSGSYGWYQQKSPGSAPVTVIYSNNQRPSNIPSRFSGSPSGSTGTLTITGVQADDEAVYFCGSRDSSYVGVFGAGTTLTVL
modifications: scFv linker; amino acid sequence comprised in a heavy chain of an anti-CaENO1 scFv monoclonal antibody (CaS1); amino acid sequence comprised in a light chain of an anti-CaENO1 scFv monoclonal antibody (CaS1)
- FITC fluorescence reaction [1]: 46.64+/−3.1%
- mortality rate of C. albicans (propidium iodide) [2]: 37+/−0.8%
- Binding to purified mENO1 (Western blot) [3]: very little; also recorded: weak cross reactivity
- Binding to fluconazole resistance and susceptible C. albicans from clinic (Western blot) [4]: binds; also recorded: can bind
- Binding to ENO1 in total cell lysate of C. albicans (Western blot) ([4]; C. albicans SC 5314 lysate): specifically recognized; also recorded: reacted
- KD by competitive ELISA [5]: 4.45 µg/mL
- Kd ([5]; read-out: KD by competitive ELISA): 89 nM
- Binding of C. albicans cells to OECM-1 cells ([6]; listed as CaS1): inhibited its adherence
- Binding of C. albicans cells to OECM-1 cells ([6]; listed as CaS1 ScFv): inhibited
- Binding of C. albicans cells to OECM-1 cells ([6]; listed as scFv CaS1): significantly reduced

Reference: patent US11485776B2, “Antibodies against infectious diseases” (priority 2015, dated 2022)
